± gives the standard deviation of the averaged measurements.
Legend:
[1] = tested on: Saccharomyces cerevisiae; experiment: protein stability index of tFT-peptide fusion (C-terminal peptide) (PSI (0-1 scale)); higher = more stable (slower turnover)
Description: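 MPS profiling in S. cerevisiae of the tFT-X12 degron library: putative degron peptides plus stable controls, 12 aa, fused to the C-terminus of a sfGFP-mCherry timer. Cells are FACS-sorted into 8 mCherry/sfGFP bins and deep-sequenced. PSI runs from 0 (unstable) to 1 (stable). Backgrounds are wild type, das1Δ and doa10Δ at 30 °C, and wild type, das1Δ, cdc34-1 and cdc53-1 at 37 °C; 2-3 technical replicates each.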

[2] = tested on: Saccharomyces cerevisiae; experiment: as above; details: genetic background: wild type; temperature: 30 C
[3] = genetic background: cdc34-1, temperature: 37 C
[4] = genetic background: cdc53-1, temperature: 37 C
[5] = genetic background: das1 deletion, temperature: 30 C
[6] = genetic background: das1 deletion, temperature: 37 C
[7] = genetic background: doa10 deletion, temperature: 30 C
[8] = genetic background: wild type, temperature: 30 C
[9] = genetic background: wild type, temperature: 37 C
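Further: PSI is a weighted mean of sequencing reads over stability bins, variants kept only with over 10 reads, mCherry proximal and sfGFP distal, peptide attached via GGGS linker.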

Sequence | protein stability index [1, 3] | protein stability index [1, 4] | protein stability index [1, 5] | protein stability index [1, 6] | protein stability index [1, 7] | protein stability index [1, 8] | protein stability index [1, 9] | protein stability index [2]
FPCRNFMVFFCF | 0.425 ± 0.029 | 0.442 ± 0.008 | 0.43 ± 0.035 | 0.505 ± 0.0097 | 0.211 ± 0.0036 | 0.204 ± 0.0085 | 0.285 ± 0.03 | 0.29 ± 0.03
VVLWTFLLEVSA | 0.0259 ± 0.011 | 0.0344 ± 0.0033 | 0.0674 ± 0.015 | 0.0951 ± 0.0053 | 0.0508 ± 0.019 | 0.0755 ± 0.033 | 0.101 ± 0.014 | 0.134 ± 0.034
SPCLPRGVLFLA | 0.603 ± 0.055 | 0.7253 ± 0.004 | 0.667 ± 0.031 | 0.716 ± 0.005 | 0.2729 ± 0.0022 | 0.297 ± 0.022 | 0.437 ± 0.0099 | 0.367 ± 0.0063
HRFCAPSLSASD | 0.675 ± 0.007 | 0.722 ± 0.013 | 0.6628 ± 0.0047 | 0.7288 ± 0.0054 | 0.665 ± 0.024 | 0.666 ± 0.012 | 0.696 ± 0.0086 | 0.697 ± 0.062
CGWFVSVGWRLG | 0.5443 ± 0.0014 | 0.67 ± 0.037 | 0.514 ± 0.016 | 0.66 ± 0.0096 | 0.228 ± 0.014 | 0.305 ± 0.035 | 0.5062 ± 0.0022 | 0.25 ± 0.013
VSWWRGVYVVLF | 0.503 ± 0.019 | 0.5319 ± 0.00099 | 0.388 ± 0.031 | 0.566 ± 0.0089 | 0.342 ± 0.013 | 0.357 ± 0.018 | 0.526 ± 0.023 | 0.518 ± 0.039
MALAVRVVRCGA | 0.406 ± 0.0042 | 0.422 ± 0.018 | 0.302 ± 0.025 | 0.4769 ± 0.0017 | 0.227 ± 0.043 | 0.233 ± 0.038 | 0.379 ± 0.033 | 0.353 ± 0.024
VFAWSLYLRWAW | 0.2813 ± 0.0012 | 0.287 ± 0.0065 | 0.362 ± 0.025 | 0.411 ± 0.011 | 0.481 ± 0.02 | 0.357 ± 0.017 | 0.384 ± 0.0076 | 0.489 ± 0.015
VVGILVLASWDL | 0.184 ± 0.011 | 0.321 ± 0.058 | 0.264 ± 0.041 | 0.426 ± 0.019 | 0.196 ± 0.0056 | 0.225 ± 0.029 | 0.373 ± 0.017 | 0.376 ± 0.045
SFAVSSDYLFII | 0.69 ± 0.099 | 0.788 ± 0.028 | 0.689 ± 0.034 | 0.808 ± 0.032 | 0.316 ± 0.037 | 0.361 ± 0.023 | 0.582 ± 0.01 | 0.401 ± 0.019
NNQIQKKMYQTN | 0.585 ± 0.022 | 0.778 ± 0.018 | 0.667 ± 0.019 | 0.737 ± 0.012 | 0.179 ± 0.025 | 0.198 ± 0.05 | 0.473 ± 0.051 | 0.35 ± 0.022
PPTPYPRFIFSF | 0.688 ± 0.048 | 0.7541 ± 0.0012 | 0.647 ± 0.023 | 0.7672 ± 0.0047 | 0.331 ± 0.02 | 0.372 ± 0.028 | 0.601 ± 0.0037 | 0.459 ± 0.027
RYLHFASLLFAS | 0.658 ± 0.019 | 0.709 ± 0.0084 | 0.585 ± 0.012 | 0.729 ± 0.0093 | 0.179 ± 0.006 | 0.226 ± 0.035 | 0.52 ± 0.016 | 0.364 ± 0.014
SVVRCWVLLGVA | 0.121 ± 0.047 | 0.157 ± 0.028 | 0.198 ± 0.013 | 0.303 ± 0.0057 | 0.135 ± 0.0021 | 0.164 ± 0.026 | 0.2377 ± 0.0011 | 0.276 ± 0.024
GVQFSVKWVKLG | 0.519 ± 0.022 | 0.7 ± 0.0093 | 0.616 ± 0.014 | 0.734 ± 0.0015 | 0.106 ± 0.011 | 0.109 ± 0.025 | 0.18 ± 0.0065 | 0.225 ± 0.019
SGRAWRLRMHVI | 0.663 ± 0.02 | 0.749 ± 0.011 | 0.661 ± 0.037 | 0.757 ± 0.018 | 0.263 ± 0.0029 | 0.269 ± 0.012 | 0.459 ± 0.041 | 0.406 ± 0.17
LPSLPPPPPPPP | 0.675 ± 0.071 | 0.717 ± 0.018 | 0.673 ± 0.044 | 0.732 ± 0.024 | 0.654 ± 0.025 | 0.647 ± 0.016 | 0.687 ± 0.0092 | 0.498 ± 0.039
PRPLLSIYLRHA | 0.597 ± 0.036 | 0.666 ± 0.014 | 0.599 ± 0.023 | 0.69 ± 0.019 | 0.29 ± 0.013 | 0.315 ± 0.017 | 0.553 ± 0.022 | 0.405 ± 0.018
YLFFSCIFTFSC | 0.121 ± 0.025 | 0.198 ± 0.027 | 0.179 ± 0.024 | 0.331 ± 0.014 | 0.189 ± 0.011 | 0.211 ± 0.091 | 0.273 ± 0.018 | 0.316 ± 0.025
DKVTLLRRCKQY | 0.606 ± 0.03 | 0.726 ± 0.009 | 0.634 ± 0.026 | 0.701 ± 0.015 | 0.173 ± 0.029 | 0.206 ± 0.03 | 0.311 ± 0.012 | 0.202 ± 0.12

Sequence | protein stability index [1, 3] | protein stability index [1, 4] | protein stability index [1, 5] | protein stability index [1, 6] | protein stability index [1, 7] | protein stability index [1, 8] | protein stability index [1, 9] | protein stability index [2]
CFFICGVFVFLM | 0.21 ± 0.07 | 0.338 ± 0.029 | 0.257 ± 0.03 | 0.435 ± 0.014 | 0.229 ± 0.01 | 0.244 ± 0.034 | 0.4088 ± 0.0015 | 0.3651 ± 0.00098
GGRSLYAILCAV | 0.3216 ± 0.0018 | 0.393 ± 0.018 | 0.277 ± 0.028 | 0.4669 ± 0.0034 | 0.166 ± 0.021 | 0.197 ± 0.027 | 0.261 ± 0.011 | 0.321 ± 0.03
GIVYFDQWISVS | 0.546 ± 0.031 | 0.538 ± 0.082 | 0.393 ± 0.022 | 0.571 ± 0.016 | 0.321 ± 0.0069 | 0.347 ± 0.02 | 0.544 ± 0.0084 | 0.461 ± 0.052
VVLWVVCWGCWK | 0.237 ± 0.05 | 0.339 ± 0.021 | 0.215 ± 0.038 | 0.432 ± 0.024 | 0.179 ± 0.015 | 0.205 ± 0.029 | 0.421 ± 0.021 | 0.328 ± 0.027
RIAIRSAVICAS | 0.306 ± 0.05 | 0.379 ± 0.0076 | 0.276 ± 0.028 | 0.487 ± 0.0057 | 0.101 ± 0.032 | 0.138 ± 0.038 | 0.154 ± 0.02 | 0.183 ± 0.028
LWGLVWGGVWGV | 0.683 ± 0.039 | 0.722 ± 0.013 | 0.564 ± 0.014 | 0.729 ± 0.012 | 0.5683 ± 0.0018 | 0.573 ± 0.015 | 0.705 ± 0.0096 | 0.439 ± 0.015
WNIVKHREDMLS | 0.685 ± 0.013 | 0.768 ± 0.015 | 0.638 ± 0.021 | 0.7359 ± 0.0046 | 0.63 ± 0.033 | 0.621 ± 0.027 | 0.7213 ± 0.0053 | 0.524 ± 0.14
AFFGIYLICFIV | 0.118 ± 0.008 | 0.2044 ± 0.00042 | 0.225 ± 0.024 | 0.382 ± 0.014 | 0.1711 ± 0.001 | 0.125 ± 0.007 | 0.146 ± 0.013 | 0.207 ± 0.073
FFLLLVGFSVLG | 0.223 ± 0.071 | 0.265 ± 0.012 | 0.238 ± 0.024 | 0.421 ± 0.024 | 0.224 ± 0.024 | 0.222 ± 0.021 | 0.373 ± 0.0038 | 0.349 ± 0.0064
NGLVCVFILSWY | 0.202 ± 0.022 | 0.261 ± 0.1 | 0.234 ± 0.038 | 0.437 ± 0.011 | 0.21 ± 0.012 | 0.238 ± 0.033 | 0.375 ± 0.0047 | 0.375 ± 0.031
HRARILLIRICP | 0.486 ± 0.024 | 0.517 ± 0.011 | 0.411 ± 0.024 | 0.64 ± 0.019 | 0.5034 ± 0.0046 | 0.42 ± 0.032 | 0.585 ± 0.029 | 0.415 ± 0.017
KKIKKYTRKLKI | 0.707 ± 0.0088 | 0.765 ± 0.014 | 0.673 ± 0.05 | 0.719 ± 0.053 | 0.323 ± 0.014 | 0.383 ± 0.02 | 0.63 ± 0.0069 | 0.455 ± 0.048
GLVVVVRLQYSP | 0.309 ± 0.027 | 0.424 ± 0.02 | 0.329 ± 0.017 | 0.458 ± 0.011 | 0.27482 ± 1.4e-06 | 0.299 ± 0.016 | 0.4415 ± 0.0014 | 0.404 ± 0.027
VCDPWVFIRCLV | 0.418 ± 0.015 | 0.57354 ± 0.00022 | 0.418 ± 0.031 | 0.6025 ± 0.0034 | 0.11 ± 0.0075 | 0.118 ± 0.032 | 0.104 ± 0.018 | 0.234 ± 0.1
VFFSLSLILFPF | 0.431 ± 0.037 | 0.5265 ± 0.0017 | 0.412 ± 0.022 | 0.525 ± 0.024 | 0.3557 ± 0.00081 | 0.402 ± 0.019 | 0.4897 ± 0.0017 | 0.419 ± 0.013
LRKARLFLKAKC | 0.645 ± 0.031 | 0.678 ± 0.041 | 0.497 ± 0.032 | 0.705 ± 0.0046 | 0.17 ± 0.022 | 0.219 ± 0.017 | 0.384 ± 0.0047 | 0.323 ± 0.03
YPPLFLLMRGVL | 0.594 ± 0.021 | 0.694 ± 0.013 | 0.605 ± 0.018 | 0.712 ± 0.021 | 0.157 ± 0.011 | 0.175 ± 0.034 | 0.357 ± 0.016 | 0.258 ± 0.075
PFFVLFSLAFLF | 0.375 ± 0.018 | 0.439 ± 0.033 | 0.302 ± 0.04 | 0.4886 ± 0.00064 | 0.2698 ± 0.0019 | 0.278 ± 0.017 | 0.422 ± 0.015 | 0.279 ± 0.07
ILVFHFWPFLVR | 0.411 ± 0.046 | 0.435 ± 0.015 | 0.351 ± 0.018 | 0.523 ± 0.018 | 0.418 ± 0.027 | 0.35 ± 0.017 | 0.503 ± 0.017 | 0.426 ± 0.04

Source: the supplement of paper PMC10724198
